Results on two variants are retold here after IntAct's records for PubMed 37100772.

To fix the notation:
B1: Nucleoprotein (Zaire ebolavirus (strain Mayinga-76)), P18272 (parent)
chain: MDSRPQKIWMAPSLTESDMDYHKILTAGLSVQQGIVRQRVIPVYQVNNLEEICQLIIQAFEAGVDFQESADSFLLMLCLHHAYQGDYKLFLESGAVKYLEGHGFRFEVKKRDGVKRLEELLPAVSSGKNIKRTLAAMPEEETTEANAGQFLSFASLFLPKLVVGEKACLEKVQRQIQVHAEQGLIQYPTAWQSVGHMMVIFRLMRTNFLIKFLLIHQGMHMVAGHDANDAVISNSVAQARFSGLLIVKTVLDHILQKTERGVRLHPLARTAKVKNEVNSFKAALSSLAKHGEYAPFARLLNLSGVNNLEHGLFPQLSAIALGVATAHGSTLAGVNVGEQYQQLREAATEAEKQLQQYAESRELDHLGLDDQEKKILMNFHQKKNEISFQQTNAMVTLRKERLAKLTEAITAASLPKTSGHYDDDDDIPFPGPINDDDNPGHQDDDPTDSQDTTIPDVVVDPDDGSYGEYQSYSENGMNAPDDLVLFDLDEDDEDTKPVPNRSTKGGQQKNSQKGQHIEGRQTQSRPIQNVPGPHRTIHHASAPLTDNDRRNEPSGSTSPRMLTPINEEADPLDDADDETSSLPPLESDDEEQDRDGTSNRTPTVAPPAPVYRDHSEKKELPQDEQQDQDHTQEARNQDSDNTQSEHSFEEMYRHILRSQGPFDAVLYYHMMKDEPVVFSTSDGKEYTYPDSLEEEYPPWLTEKEAMNEENRFVTLDGQQFYWPVMNHKNKFMAILQHHQ
partner: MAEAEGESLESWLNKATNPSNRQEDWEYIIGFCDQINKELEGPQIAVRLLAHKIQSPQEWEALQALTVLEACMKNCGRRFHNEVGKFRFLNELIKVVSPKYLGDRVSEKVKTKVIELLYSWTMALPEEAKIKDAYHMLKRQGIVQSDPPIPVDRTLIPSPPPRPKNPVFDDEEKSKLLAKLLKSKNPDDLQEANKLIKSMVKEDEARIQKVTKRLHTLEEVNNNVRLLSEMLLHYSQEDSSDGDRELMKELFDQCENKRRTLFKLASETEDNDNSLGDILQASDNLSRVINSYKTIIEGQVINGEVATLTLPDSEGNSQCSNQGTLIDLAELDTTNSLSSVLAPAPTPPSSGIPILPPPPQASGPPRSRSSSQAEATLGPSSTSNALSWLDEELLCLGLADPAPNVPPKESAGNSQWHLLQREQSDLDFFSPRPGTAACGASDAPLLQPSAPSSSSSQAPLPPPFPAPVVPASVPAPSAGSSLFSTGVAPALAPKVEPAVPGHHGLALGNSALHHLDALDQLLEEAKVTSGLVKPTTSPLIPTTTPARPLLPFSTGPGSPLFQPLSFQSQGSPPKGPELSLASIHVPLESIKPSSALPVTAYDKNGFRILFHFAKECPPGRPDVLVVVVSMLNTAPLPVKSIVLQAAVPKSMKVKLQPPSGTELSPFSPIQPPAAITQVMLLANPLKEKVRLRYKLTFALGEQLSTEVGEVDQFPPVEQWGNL
B2: Nucleoprotein (Zaire ebolavirus (strain Mayinga-76)), P18272 (parent)
chain: B1 chain

The variants in the first assay derive from B1. The conditions noted are these: with gga3_human GGA3, Q9NZ52.
For Y469A, the “effect of a mutation on the interaction” value is given as “disrupting interaction strength”.

The next assay covers variants of B2. The settings on record: with ap2m1_human AP2M1, Q96CW1.
Sequence of ap2m1_human AP2M1, Q96CW1 (Q96CW1 whole entry): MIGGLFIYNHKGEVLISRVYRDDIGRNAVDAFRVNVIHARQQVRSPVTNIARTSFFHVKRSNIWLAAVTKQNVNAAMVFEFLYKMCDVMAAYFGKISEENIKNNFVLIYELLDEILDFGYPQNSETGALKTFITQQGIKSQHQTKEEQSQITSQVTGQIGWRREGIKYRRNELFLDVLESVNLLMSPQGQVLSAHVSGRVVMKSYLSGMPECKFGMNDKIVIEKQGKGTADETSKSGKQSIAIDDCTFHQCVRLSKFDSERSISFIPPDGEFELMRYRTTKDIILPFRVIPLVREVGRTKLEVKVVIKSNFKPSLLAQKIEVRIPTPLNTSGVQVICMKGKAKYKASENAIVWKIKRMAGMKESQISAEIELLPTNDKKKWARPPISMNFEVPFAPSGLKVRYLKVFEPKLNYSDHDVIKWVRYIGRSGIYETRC
Take Y340A;L343A: the “effect of a mutation on the interaction” value was “with no effect”.
